Experimental data: patent US20220153847A1 (Chugai, published 2022)
Positions count from the first letter of the chain named.

T1: HLA-DQ2.5 on HLA-DQ2.5-positive PBMC B cells (human, UniProt P01909 24-254; P01920 33-261)
T1 construct: whole, on cells; also called HLA-DQ2.5+ PBMC B cell
T1 MHC II alpha: not shown
T1 MHC II beta: not shown

B1: DQN0344xx//DQN0385ee (bispecific antibody, human IgG1, kappa)
heavy 1: QSLEESGGGLVKPGGTLTLTCTASGFSFSSSYWMCWVRQAPGKGLEWVACVYGGSDTTYYASWTKGRFTISKGSSTTVALQVTSLTAADTATYFCARDPLNYYYYGELNLWGPGTLVTVSSASTKGPSVFPLAPSSKSTSGGTAALGCLVKDYFPEPVTVSWNSGALTSGVHTFPAVLQSSGLYSLSSVVTVPSSSLGTQTYICNVNHKPSNTKVDKRVEPKSCDKTHTCPPCPAPELRRGPSVFLFPPKPKDTLMISRTPEVTCVVVDVSHEDPEVKFNWYVDGVEVHNAKTKPREEQYNSTYRVVSVLTVLHQDWLNGKEYKCKVSNKALPAPIEKTISKAKGQPREPQVYTLPPSREEMTKNQVSLTCLVKGFYPSDIAVEWESNGQPENNYKTTPPYLDSDGSFFLYSKLTVDKSRWQQGNVFSCSVMHEALHNHYTQESLSLSP
light 1: AVVLTQTASPVSAAVGGTVTIRCQATENIYSGLAWYQQKPGQPPKVLIYYVSTLASGVPSRFKGSGSGTEYTLTISGVQCDDAATYYCQTYHDISNVTFGGGTKVEIKRTVAAPSVFIFPPSDEQLKSGTASVVCLLNNFYPREAKVQWKVDNALQSGNSQESVTEQDSKDCTYSLSSTLTLSKADYEKHKVYACEVTHQGLSSPVTKSFNRGEC
heavy 2: QEQLEESGGDLVKPGASLTLTCTASGFSFYSSYWICWVRQAPGKGLEWIACIDTGSGSIDYASWVNGRFTISKTSSTTVTLQMTSLTVADTATYFCARDIGIDYNFWGPGTLVTVSSASTKGPSVFPLAPSSKSTSGGTAALGCLVKDYFPEPVTVSWNSGALTSGVHTFPAVLQSSGLYSLSSVVTVPSSSLGTQTYICNVNHKPSNTKVDKRVEPKSCDKTHTCPPCPAPELRRGPSVFLFPPKPKDTLMISRTPEVTCVVVDVSHEDPEVKFNWYVDGVEVHNAKTKPREEQYNSTYRVVSVLTVLHQDWLNGKEYKCKVSNKALPAPIEKTISKAKGQPREPQVYTLPPSRKEMTKNQVSLTCLVKGFYPSDIAVEWESNGQPENNYKTTPPYLDSDGSFFLYSKLTVDKSRWQQGNVFSCSVMHEALHNHYTQKSLSLSP
light 2: AFELTQTPSFVEAAVGGTVTIKCQATQSISSYLNWYQQKPGQPPKLLIYYASTLASGVPSRFKGSGSGTEFSLTISGVECADAATYYCHYGISYVSFGGGTKVEIKRTVAAPSVFIFPPSDEQLKSGTASVVCLLNNFYPREAKVQWKVDNALQSGNSQESVTEQDSKDCTYSLSSTLTLSKADYEKHKVYACEVTHQGLSSPVTKSFNRGEC
B2: DQN0385ee//IC17 (bispecific antibody, human IgG1, kappa)
heavy 1: B1 heavy 2 with K356E, K439E
light 1: B1 light 2
heavy 2: QVQLQQSGPQLVRPGASVKISCKASGYSFTSYWMHWVNQRPGQGLEWIGMIDPSYSETRLNQKFKDKATLTVDKSSSTAYMQLSSPTSEDSAVYYCALYGNYFDYWGQGTTLTVSSASTKGPSVFPLAPSSKSTSGGTAALGCLVKDYFPEPVTVSWNSGALTSGVHTFPAVLQSSGLYSLSSVVTVPSSSLGTQTYICNVNHKPSNTKVDKRVEPKSCDKTHTCPPCPAPELRRGPSVFLFPPKPKDTLMISRTPEVTCVVVDVSHEDPEVKFNWYVDGVEVHNAKTKPREEQYNSTYRVVSVLTVLHQDWLNGKEYKCKVSNKALPAPIEKTISKAKGQPREPQVYTLPPSRKEMTKNQVSLTCLVKGFYPSDIAVEWESNGQPENNYKTTPPYLDSDGSFFLYSKLTVDKSRWQQGNVFSCSVMHEALHNHYTQKSLSLSP
light 2: DIQMTQSSSSFSVSLGDRVTITCKASEDIYNRLAWYQQKPGNAPRLLISGATSLETGVPSRFSGSGSGKDYTLSITSLQTEDVATYYCQQYWSTPYTFGGGTKLEVKRTVAAPSVFIFPPSDEQLKSGTASVVCLLNNFYPREAKVQWKVDNALQSGNSQESVTEQDSKDSTYSLSSTLTLSKADYEKHKVYACEVTHQGLSSPVTKSFNRGEC

What was measured:
[1] = target: T2, HLA-DQ2.5/alpha 1b gliadin peptide complex on Ba/F3 cells (human); test: FACS, Ba/F3 cells; IC17=0%, DQN0139bb//IC17=100%;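 further: flow cytometry binding of anti-HLA-DQ antibodies at 5 µg/mL, incubated 30 min at room temperature with Ba/F3 lines presenting HLA-DQ/peptide complexes; antibody tested at 5 microgram/mL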
T2 construct: whole, on cells; also called Ba/F3-HLA-DQ2.5/alpha 1b gliadin; HLA-DQ2.5/a1b gliadin

[2] = target: T3, HLA-DQ2.5/omega 1 gliadin peptide complex on Ba/F3 cells (human); test: FACS, Ba/F3 cells; IC17=0%, DQN0139bb//IC17=100%;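 further: flow cytometry binding of anti-HLA-DQ antibodies at 5 µg/mL, incubated 30 min at room temperature with Ba/F3 lines presenting HLA-DQ/peptide complexes; antibody tested at 5 microgram/mL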
T3 construct: whole, on cells; also called Ba/F3-HLA-DQ2.5/omega 1 gliadin; HLA-DQ2.5/w1 gliadin

[3] = target: T4, HLA-DQ2.5/CLIP peptide complex on Ba/F3 cells (human); test: FACS, Ba/F3 cells; IC17=0%, DQN0139bb//IC17=100%;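 further: flow cytometry binding of anti-HLA-DQ antibodies at 5 µg/mL, incubated 30 min at room temperature with Ba/F3 lines presenting HLA-DQ/peptide complexes; antibody tested at 5 microgram/mL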
T4 construct: whole, on cells; also called Ba/F3-HLA-DQ2.5/CLIP
T4 sequence (P04233 96-124, chain 2 of 2, other chains not shown): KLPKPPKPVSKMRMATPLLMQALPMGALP

[4] = target: T5, HLA-DQ2.5/alpha 3 gliadin peptide complex on Ba/F3 cells (human); test: FACS, Ba/F3 cells; IC17=0%, DQN0139bb//IC17=100%;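 further: flow cytometry binding of anti-HLA-DQ antibodies at 5 µg/mL, incubated 30 min at room temperature with Ba/F3 lines presenting HLA-DQ/peptide complexes; antibody tested at 5 microgram/mL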
T5 construct: whole, on cells; also called Ba/F3-HLA-DQ2.5/alpha 3 gliadin; HLA-DQ2.5/a3 gliadin

[5] = target: T6, HLA-DQ2.5/omega 2 gliadin peptide complex on Ba/F3 cells (human); test: FACS, Ba/F3 cells; IC17=0%, DQN0139bb//IC17=100%
T6 construct: whole, on cells; also called Ba/F3-HLA-DQ2.5/omega 2 gliadin; HLA-DQ2.5/w2 gliadin

[6] = target: T7, HLA-DQ2.5/secalin 1 peptide complex on Ba/F3 cells (human); test: FACS, Ba/F3 cells; IC17=0%, DQN0139bb//IC17=100%
T7 construct: whole, on cells; also called Ba/F3-HLA-DQ2.5/secalin 1

[7] = target: T8, HLA-DQ2.5/gamma 2 gliadin peptide complex on Ba/F3 cells (human); test: FACS, Ba/F3 cells; IC17=0%, DQN0139bb//IC17=100%
T8 construct: whole, on cells; also called Ba/F3-HLA-DQ2.5/gamma 2 gliadin; HLA-DQ2.5/g2 gliadin

[8] = target: T9, HLA-DQ2.5/hordein 1 peptide complex on Ba/F3 cells (human); test: FACS, Ba/F3 cells; IC17=0%, DQN0139bb//IC17=100%
T9 construct: whole, on cells; also called Ba/F3-HLA-DQ2.5/hordein 1

[9] = target: T10, HLA-DQ2.5/gamma 1 gliadin peptide complex on Ba/F3 cells (human); test: FACS, Ba/F3 cells; IC17=0%, DQN0139bb//IC17=100%
T10 construct: whole, on cells; also called Ba/F3-HLA-DQ2.5/gamma 1 gliadin; HLA-DQ2.5/g1 gliadin

[10] = target: T11, HLA-DQ2.5/alpha 2 gliadin peptide complex on Ba/F3 cells (human); test: FACS, Ba/F3 cells; IC17=0%, DQN0139bb//IC17=100%
T11 construct: whole, on cells; also called Ba/F3-HLA-DQ2.5/alpha 2 gliadin; HLA-DQ2.5/a2 gliadin

[11] = target: T12, HLA-DQ2.5/alpha 1 gliadin peptide complex on Ba/F3 cells (human); test: FACS, Ba/F3 cells; IC17=0%, DQN0139bb//IC17=100%
T12 construct: whole, on cells; also called Ba/F3-HLA-DQ2.5/alpha 1 gliadin; HLA-DQ2.5/a1 gliadin

[12] = target: T13, HLA-DQ2.5/gamma 4b gliadin peptide complex on Ba/F3 cells (human); test: FACS, Ba/F3 cells; IC17=0%, DQN0139bb//IC17=100%
T13 construct: whole, on cells; also called Ba/F3-HLA-DQ2.5/gamma 4b gliadin; HLA-DQ2.5/g4b gliadin

[13] = target: T14, HLA-DQ2.5/14mer 1 peptide complex on Ba/F3 cells (human); test: FACS, Ba/F3 cells; IC17=0%, DQN0139bb//IC17=100%
T14 construct: whole, on cells; also called Ba/F3-HLA-DQ2.5/14mer 1

[14] = target: T15, HLA-DQ2.5/26mer gliadin peptide complex on Ba/F3 cells (human); test: FACS, Ba/F3 cells; IC17=0%, DQN0139bb//IC17=100%
T15 construct: whole, on cells; also called Ba/F3-HLA-DQ2.5/26mer gliadin

[15] = target: T16, HLA-DQ2.5/BC hordein peptide complex on Ba/F3 cells (human); test: FACS, Ba/F3 cells; IC17=0%, DQN0139bb//IC17=100%
T16 construct: whole, on cells; also called Ba/F3-HLA-DQ2.5/BC hordein

[16] = target: T17, HLA-DQ2.5/avenin 1 peptide complex on Ba/F3 cells (human); test: FACS, Ba/F3 cells; IC17=0%, DQN0139bb//IC17=100%
T17 construct: whole, on cells; also called Ba/F3-HLA-DQ2.5/avenin 1

[17] = target: T18, HLA-DQ2.5/avenin 2 peptide complex on Ba/F3 cells (human); test: FACS, Ba/F3 cells; IC17=0%, DQN0139bb//IC17=100%
T18 construct: whole, on cells; also called Ba/F3-HLA-DQ2.5/avenin 2

[18] = target: T19, HLA-DQ2.5/secalin 2 peptide complex on Ba/F3 cells (human); test: FACS, Ba/F3 cells; IC17=0%, DQN0139bb//IC17=100%
T19 construct: whole, on cells; also called Ba/F3-HLA-DQ2.5/secalin 2

[19] = target: T20, HLA-DQ2.5/hordein 2 peptide complex on Ba/F3 cells (human); test: FACS, Ba/F3 cells; IC17=0%, DQN0139bb//IC17=100%
T20 construct: whole, on cells; also called Ba/F3-HLA-DQ2.5/hordein 2

[20] = target: T21, HLA-DQ2.5/avenin 3 peptide complex on Ba/F3 cells (human); test: FACS, Ba/F3 cells; IC17=0%, DQN0139bb//IC17=100%
T21 construct: whole, on cells; also called Ba/F3-HLA-DQ2.5/avenin 3

[21] = target: T1, HLA-DQ2.5 on HLA-DQ2.5-positive PBMC B …; test: FACS, PBMC B cells; IC17=0%, DQN0139bb//IC17=100%

Row | Binder | % MFI [1] [%] | % MFI [2] [%] | % MFI [3] [%] | % MFI [4] [%] | % MFI [5] [%] | % MFI [6] [%] | % MFI [7] [%] | % MFI [8] [%] | % MFI [9] [%] | % MFI [10] [%] | % MFI [11] [%] | % MFI [12] [%] | % MFI [13] [%] | % MFI [14] [%] | % MFI [15] [%] | % MFI [16] [%] | % MFI [17] [%] | % MFI [18] [%] | % MFI [19] [%] | % MFI [20] [%] | also measured
1 | B1 | 61.9 | 40 | 1.8 | 36.4 | 71.5 | 33.6 | 4.6 | 28 | 29.4 | 52.3 | 58.1 | 31.1 | 27.6 | 61.8 | 63.5 | 29.1 | 26.6 | 43.5 | 92.2 | 15.6 | % MFI [21]: 0.4%
2 | B2 | 19.2 | 17.2 | 1.3 | 20.9 | 75.2 | 11.8 | 3.4 | 24.7 | 26 | 85.6 | 6 | 32.4 | 23.3 | 70.5 | 68.1 | 4 | 8.3 | 34.4 | 98.3 | 0.2 | % MFI [21]: 0.3%
